Here are results for twelve molecules from US20030186877A1 (BRIGHAM AND WOMEN S HOSPITAL, published 2003).

B1: Boc-Aib-Ala-Leu-Aib-Ala-Leu-Aib-Ala-Leu-Aib-O-methylester (peptide)
peptide: Boc-[Aib]AL[Aib]AL[Aib]AL[Aib]-OMe
SMILES: COC(=O)C(C)(C)NC(=O)[C@H](CC(C)C)NC(=O)[C@H](C)NC(=O)C(C)(C)NC(=O)[C@H](CC(C)C)NC(=O)[C@H](C)NC(=O)C(C)(C)NC(=O)[C@H](CC(C)C)NC(=O)[C@H](C)NC(=O)C(C)(C)NC(=O)OC(C)(C)C

Square brackets hold non-standard residues; d marks the D form. * marks the point of attachment. dBpa = N[C@H](Cc1ccc(C(=O)c2ccccc2)cc1)C(=O)O; Boc = CC(C)(C)OC(=O)*; Aib = CC(C)(N)C(=O)O

The first assay has as its target γ-secretase. Kind of assay: cell-based or functional assay.
As to B1, the “IC50 of blocking Aβ production in APP-transfected cells” value was 2 µM.

For the molecule Boc-[dV]G[Aib][dV][dV][dBpa][Aib][dThr(OBz)][dV][Aib]-OMe [Boc-D-Val-Gly-Aib-D-Val-D-Val-D-BPA-Aib-D-Thr(OBz)-D-Val-Aib-OMe], the “IC50 in the same cell-based assay using CHO cells stably transfected with human APP (production of total Aβ)” value stood at 0.1 µM.

Another assay deals with γ-secretase. Kind of assay: cell-based or functional assay. This is another data set of the same source.
As for Boc-[Aib]IA[Thr(OBz)][Aib]IV[Aib]-OMe [Boc-Aib-Ile-Ala-Thr(OBz)-Aib-Ile-Val-Aib-OMe], the “IC50: concentration of compound that reduced production of total Aβ by 50% in a cell-based assay using CHO cells stably transfected with human APP” value was 10 µM.

Take Boc-IA[Thr(OBz)][Aib]IV[Aib]-OMe [Boc-Ile-Ala-Thr(OBz)-Aib-Ile-Val-Aib-OMe]: the “IC50: concentration of compound that reduced production of total Aβ by 50% in a cell-based assay using CHO cells stably transfected with human APP” value was found to be 15 µM.

Consider Boc-VVI[Aib][Thr(OBz)]V[Aib]-OMe [Boc-Val-Val-Ile-Aib-Thr(OBz)-Val-Aib-OMe], for which the “IC50: concentration of compound that reduced production of total Aβ by 50% in a cell-based assay using CHO cells stably transfected with human APP” value was determined as 6 µM. For the molecule Boc-V[Aib]IA[Thr(OBz)][Aib]IV[Aib]-OMe [Boc-Val-Aib-Ile-Ala-Thr(OBz)-Aib-Ile-Val-Aib-OMe], the “IC50: concentration of compound that reduced production of total Aβ by 50% in a cell-based assay using CHO cells stably transfected with human APP” value amounted to 2 µM.

Consider Boc-G[Aib]VVI[Aib][Thr(OBz)]V[Aib]-OMe [Boc-Gly-Aib-Val-Val-Ile-Aib-Thr(OBz)-Val-Aib-OMe], for which the “IC50: concentration of compound that reduced production of total Aβ by 50% in a cell-based assay using CHO cells stably transfected with human APP” value was determined as 3 µM. As to Boc-VI[Aib][Thr(OBz)]V[Aib]-OMe [Boc-Val-Ile-Aib-Thr(OBz)-Val-Aib-OMe], the “IC50: concentration of compound that reduced production of total Aβ by 50% in a cell-based assay using CHO cells stably transfected with human APP” value came to 12 µM.

Boc-[Aib]VVI[Aib][Thr(OBz)]V[Aib]-OMe [Boc-Aib-Val-Val-Ile-Aib-Thr(OBz)-Val-Aib-OMe]: the “IC50: concentration of compound that reduced production of total Aβ by 50% in a cell-based assay using CHO cells stably transfected with human APP” value is 6 µM. Still for that read-out and setting: in the case of Boc-VG[Aib]VVI[Aib][Thr(OBz)]V[Aib]-OMe [Boc-Val-Gly-Aib-Val-Val-Ile-Aib-Thr(OBz)-Val-Aib-OMe] it was 3 µM; in that of Boc-GV[Aib]IA[Thr(OBz)][Aib]IV[Aib]-OMe [Boc-Gly-Val-Aib-Ile-Ala-Thr(OBz)-Aib-Ile-Val-Aib-OMe], 5 µM. Boc-A[Thr(OBz)][Aib]IV[Aib]-OMe [Boc-Ala-Thr(OBz)-Aib-Ile-Val-Aib-OMe]: the “IC50: concentration of compound that reduced production of total Aβ by 50% in a cell-based assay using CHO cells stably transfected with human APP” value was determined as 25 µM.
